The source of these data is patent US20160108128A1 (CANCER RESEARCH TECHNOLOGY, published 2016).

For assay [1], the target named is T1, J1 DSL-EGF3 soluble recombinant protein (human Jagged 1 amino acids 185-335) (human, UniProt P78504 185-335).
T1 construct: biotinylated in the CD46 ELISA; also called J1-DE3; DSL+EGF1-3
Kind of assay: affinity to the immunogen J1-DE3; method not stated.

For assay [2], the target named is T2, murine Jagged 1, full length, on B16F10 cells (mouse, UniProt Q9QXX0 34-1218).
T2 construct: whole, on cells; GFP co-expressed; also called mJ1; B16F10-mJAG1
The assay is described as follows: FACS, B16F10-mJAG1 cells, anti-human-APC. The protocol:
FIG. 19. […] Samples were analysed by FACS and the mean fluorescence intensities (MFI) were plotted.
(§1) HEK293 cells transfected with human J1, J2 or FLAG-EGFP-tagged DSL-EGF3 constructs, B16F10 cells transfected with human DLL4 or mouse J1, and human cancer cell lines, were stained with either purified anti-J1 antibodies at 10 μg/ml diluted in FACS wash buffer (2% FBS in PBS+0.1% sodium azide) or neat hybridoma supernatants followed by a allophycocyanin (APC)-conjugated secondary antibody at 1:200 dilution: for murine primary antibodies, used goat anti-mouse-APC (eBioscience); for humanised and chimeric antibodies used goat anti-human IgG (H+L) secondary antibody (Jackson ImmunoResearch Laboratories). After washing, samples were fixed with 1% paraformaldehyde (in PBS) and acquired with a FACSCalibur. FACS data were analysed with FlowJo software (TreeStar Inc.).

Assay [3] has as its target T3, human Jagged 2, full length, on HEK293 cells (human, UniProt Q9Y219 24-1238).
T3 construct: whole, on cells; also called J2; hJ2
The assay is described as follows: FACS, 293-JAG2 cells, anti-human-APC. How it is done:
FIG. 18. […] Samples were analysed by FACS and the mean fluorescence intensities (MFI) were plotted. […] With the exception of J1-65D variants 13-16, all the remaining antibodies effectively bound the human J1 protein.
as §1
Background: A flow cytometer gives signals particle by particle.

T3 sequence (Q9Y219 24-1238): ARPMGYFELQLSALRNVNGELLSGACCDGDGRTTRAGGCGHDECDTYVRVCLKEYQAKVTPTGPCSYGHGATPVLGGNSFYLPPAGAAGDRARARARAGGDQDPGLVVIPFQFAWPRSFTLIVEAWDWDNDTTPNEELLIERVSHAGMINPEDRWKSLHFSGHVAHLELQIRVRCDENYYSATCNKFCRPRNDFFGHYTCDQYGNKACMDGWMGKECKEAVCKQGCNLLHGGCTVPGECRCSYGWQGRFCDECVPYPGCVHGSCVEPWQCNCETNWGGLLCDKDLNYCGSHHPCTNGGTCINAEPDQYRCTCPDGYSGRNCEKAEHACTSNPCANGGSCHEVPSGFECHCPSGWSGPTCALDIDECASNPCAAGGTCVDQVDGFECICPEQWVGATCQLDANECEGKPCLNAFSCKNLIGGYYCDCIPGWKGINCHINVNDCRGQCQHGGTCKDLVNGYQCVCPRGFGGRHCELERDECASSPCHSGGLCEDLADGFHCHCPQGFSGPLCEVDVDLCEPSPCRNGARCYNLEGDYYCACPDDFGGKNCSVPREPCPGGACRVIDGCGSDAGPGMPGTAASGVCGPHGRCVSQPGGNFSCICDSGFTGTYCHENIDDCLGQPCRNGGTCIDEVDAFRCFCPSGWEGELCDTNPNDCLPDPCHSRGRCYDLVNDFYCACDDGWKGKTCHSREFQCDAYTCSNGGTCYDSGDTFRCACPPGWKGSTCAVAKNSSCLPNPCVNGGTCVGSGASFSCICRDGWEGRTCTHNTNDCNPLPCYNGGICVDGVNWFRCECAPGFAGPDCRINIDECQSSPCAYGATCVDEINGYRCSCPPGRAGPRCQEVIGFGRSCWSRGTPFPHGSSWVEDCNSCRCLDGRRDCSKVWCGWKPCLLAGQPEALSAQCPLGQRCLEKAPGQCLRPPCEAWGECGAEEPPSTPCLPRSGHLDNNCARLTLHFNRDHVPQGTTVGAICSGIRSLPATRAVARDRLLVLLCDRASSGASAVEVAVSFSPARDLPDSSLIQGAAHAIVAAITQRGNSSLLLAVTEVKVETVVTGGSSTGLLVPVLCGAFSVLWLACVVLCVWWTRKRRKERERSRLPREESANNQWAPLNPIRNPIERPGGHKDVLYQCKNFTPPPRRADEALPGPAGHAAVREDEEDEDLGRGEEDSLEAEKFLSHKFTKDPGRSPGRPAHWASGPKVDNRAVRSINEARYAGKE
T1 sequence (P78504 185-335, form in doubt): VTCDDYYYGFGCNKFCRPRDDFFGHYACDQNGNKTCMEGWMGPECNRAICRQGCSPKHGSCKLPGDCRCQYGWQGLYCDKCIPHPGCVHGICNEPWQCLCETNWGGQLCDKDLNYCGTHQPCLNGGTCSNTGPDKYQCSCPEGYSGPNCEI
T2 sequence (Q9QXX0 34-1218, one chain of several): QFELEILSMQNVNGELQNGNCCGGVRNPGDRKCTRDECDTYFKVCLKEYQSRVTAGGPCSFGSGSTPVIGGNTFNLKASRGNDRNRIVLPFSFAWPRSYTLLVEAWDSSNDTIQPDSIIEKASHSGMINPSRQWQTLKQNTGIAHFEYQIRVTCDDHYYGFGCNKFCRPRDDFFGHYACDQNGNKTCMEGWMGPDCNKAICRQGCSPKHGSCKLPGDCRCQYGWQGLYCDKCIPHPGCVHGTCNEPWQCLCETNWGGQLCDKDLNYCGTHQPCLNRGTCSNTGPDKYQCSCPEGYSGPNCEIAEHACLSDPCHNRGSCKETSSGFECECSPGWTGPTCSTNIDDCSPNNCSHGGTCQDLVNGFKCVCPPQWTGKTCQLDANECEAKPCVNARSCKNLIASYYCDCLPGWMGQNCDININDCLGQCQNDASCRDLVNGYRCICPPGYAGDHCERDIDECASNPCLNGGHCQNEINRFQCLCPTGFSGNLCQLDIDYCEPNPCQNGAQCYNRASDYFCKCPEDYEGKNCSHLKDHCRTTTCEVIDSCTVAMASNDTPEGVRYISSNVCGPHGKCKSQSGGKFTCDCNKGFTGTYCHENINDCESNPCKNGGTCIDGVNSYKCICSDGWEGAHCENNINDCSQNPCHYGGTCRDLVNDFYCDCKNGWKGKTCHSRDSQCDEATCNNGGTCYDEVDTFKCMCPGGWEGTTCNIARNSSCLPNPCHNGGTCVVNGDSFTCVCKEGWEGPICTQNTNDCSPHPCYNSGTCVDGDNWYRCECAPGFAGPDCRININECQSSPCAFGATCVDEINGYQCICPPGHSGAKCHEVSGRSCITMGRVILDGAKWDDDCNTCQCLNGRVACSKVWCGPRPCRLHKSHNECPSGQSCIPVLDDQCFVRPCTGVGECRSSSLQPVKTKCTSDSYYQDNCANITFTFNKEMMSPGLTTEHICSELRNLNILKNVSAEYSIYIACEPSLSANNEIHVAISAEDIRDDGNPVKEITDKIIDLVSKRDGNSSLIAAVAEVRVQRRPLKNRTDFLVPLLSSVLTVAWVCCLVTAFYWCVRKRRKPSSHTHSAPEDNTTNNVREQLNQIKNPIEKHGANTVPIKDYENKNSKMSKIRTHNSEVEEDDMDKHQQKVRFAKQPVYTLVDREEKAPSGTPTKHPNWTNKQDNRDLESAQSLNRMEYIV

B1: J1-183D variant 10 (antibody, human IgG1, V domains shown)
VH: QVQLVQSGAELKKPGASVKVSCKVSGYAFTDYAIHWIRQAPGQGLEWMGIINTYYGDSKYAQKFQGRVTMTVDTSTSTAYMELSSLRSEDTAVYYCARGYDGFAYWGQGTLVTVSS
VL: DIQMTQSPSSLSASVGDRVTITCRTSENIYSYLTWYQQKPGKAPKLLIYNAKILDSGVPSRFSGSGSGTDFTLTISSLQPEDFATYYCQHHYDIPWTFGGGTKLEIKR
notes: human IgG1; also called J1-183DV10; V10
Turning to B1, the Kd (usually the free concentration of one partner at which half of the binding sites on the other are occupied at equilibrium, for simple one-to-one binding) in assay [1] stood at 1.77 nM. Further, the binding result in assay [2] and in assay [3] was “no binding (tested: 10 ug/ml)” each time.

B2: J1-183D variant 3 (antibody, human IgG1, V domains shown)
VH: QVQLVQSGAELKKPGASVKVSCKVSGYAFTDYAIHWVRQAPGQGLEWMGIINTYYGDSKYAQKFQGRVTMTVDTSTSTAYMELSSLRSEDTAVYYCARGYDGFAYWGQGTLVTVSS
VL: DIQMTQSPSSLSASVGDRVTITCRTSENIYSYLTWYQQKPGKAPKLLVYNAKILAAGVPSRFSGSGSGTDFTLTISSLQPEDFATYYCQHHYDIPWTFGGGTKLEIKR
notes: human IgG1; also called J1-183DV3; V3
For the molecule B2, the Kd in assay [1] turned out to be 2.55 nM. Also, the binding result in assay [2] and in assay [3] was “no binding (tested: 10 ug/ml)” throughout.

B3: J1-183D variant 2 (antibody, human IgG1, V domains shown)
VH: QVQLVQSGAELKKPGASVKVSCKVSGYAFTDYAIHWIRQAPGQGLEWMGIINTYYGDSKYAQKFQGRVTMTVDTSTSTAYMELSSLRSEDTAVYYCARGYDGFAYWGQGTLVTVSS
VL: DIQMTQSPSSLSASVGDRVTITCRTSENIYSYLTWYQQKPGKAPKLLVYNAKILAAGVPSRFSGSGSGTDFTLTISSLQPEDFATYYCQHHYDIPWTFGGGTKLEIKR
notes: human IgG1; also called J1-183DV2; V2
Turning to B3, the Kd in assay [1] was determined as 2.19 nM. Also, the binding result in assay [2] and in assay [3] was “no binding (tested: 10 ug/ml)” in each case.

B4: J1-183D variant 7 (antibody, human IgG1, V domains shown)
VH: QVQLVQSGAELKKPGASVKVSCKVSGYAFTDYAIHWVRQAPGQGLEWMGIINTYYGDSKYAQKFQGRVTMTVDTSTSTAYMELSSLRSEDTAVYYCARGYDGFAYWGQGTLVTVSS
VL: DIQMTQSPSSLSASVGDRVTITCRTSENIYSYLTWYQQKPGKAPKLLIYNAKTLASGVPSRFSGSGSGTDFTLTISSLQPEDFATYYCQHHYDIPWTFGGGTKLEIKR
notes: human IgG1; also called J1-183DV7; V7
For the molecule B4, the Kd in assay [1] came out at 1.26 nM. Further, the binding result in assay [2] and in assay [3] was “no binding (tested: 10 ug/ml)” each time.

B5: J1-183D variant 1 (antibody, human IgG1, V domains shown)
VH: QVQLVQSGAELKKPGASVKVSCKVSGYAFTDYAIHWIRQAPGQGLEWMGIINTYYGDSKYNQKFKDRVTMTVDKSTSTAYMELSSLRSEDTAVYYCARGYDGFAYWGQGTLVTVSS
VL: DIQMTQSPSSLSASVGDRVTITCRTSENIYSYLTWYQQKPGKAPKLLVYNAKILAAGVPSRFSGSGSGTDFTLTISSLQPEDFATYYCQHHYDIPWTFGGGTKLEIKR
notes: human IgG1; also called J1-183DV1; V1
With B5, the Kd in assay [1] was 0.77 nM. Further, the binding result in assay [2] and in assay [3] was “no binding (tested: 10 ug/ml)” each time.

B6: J1-183D variant 5 (antibody, human IgG1, V domains shown)
VH: QVQLVQSGAELKKPGASVKVSCKVSGYAFTDYAIHWIRQAPGQGLEWMGIINTYYGDSKYNQKFKDRVTMTVDKSTSTAYMELSSLRSEDTAVYYCARGYDGFAYWGQGTLVTVSS
VL: DIQMTQSPSSLSASVGDRVTITCRTSENIYSYLTWYQQKPGKAPKLLIYNAKTLASGVPSRFSGSGSGTDFTLTISSLQPEDFATYYCQHHYDIPWTFGGGTKLEIKR
notes: human IgG1; also called J1-183DV5; V5
On to B6, for which the Kd in assay [1] came out at 2.75 nM. In addition, the binding result in assay [2] and in assay [3] was “no binding (tested: 10 ug/ml)” in each case.

B7: J1-183D variant 8 (antibody, human IgG1, V domains shown)
VH: QVQLVQSGAEVKKPGASVKVSCKASGYTFTDYAIHWVRQAPGQGLEWMGIINTYYGDSKYAQKFQGRVTMTVDTSTSTAYMELSSLRSEDTAVYYCARGYDGFAYWGQGTLVTVSS
VL: DIQMTQSPSSLSASVGDRVTITCRTSENIYSYLTWYQQKPGKAPKLLIYNAKTLASGVPSRFSGSGSGTDFTLTISSLQPEDFATYYCQHHYDIPWTFGGGTKLEIKR
notes: human IgG1; also called J1-183DV8; V8
Regarding B7, in assay [1], the Kd was found to be 1.48 nM. The binding result in assay [2] and in assay [3] was “no binding (tested: 10 ug/ml)” in each case.

B8: J1-183D variant 6 (antibody, human IgG1, V domains shown)
VH: QVQLVQSGAELKKPGASVKVSCKVSGYAFTDYAIHWIRQAPGQGLEWMGIINTYYGDSKYAQKFQGRVTMTVDTSTSTAYMELSSLRSEDTAVYYCARGYDGFAYWGQGTLVTVSS
VL: DIQMTQSPSSLSASVGDRVTITCRTSENIYSYLTWYQQKPGKAPKLLIYNAKTLASGVPSRFSGSGSGTDFTLTISSLQPEDFATYYCQHHYDIPWTFGGGTKLEIKR
notes: human IgG1; also called J1-183DV6; V6
In the case of B8, the Kd in assay [1] amounted to 1.39 nM. Further, the binding result in assay [2] and in assay [3] was “no binding (tested: 10 ug/ml)” in each case.

B9: J1-183D variant 4 (antibody, human IgG1, V domains shown)
VH: QVQLVQSGAEVKKPGASVKVSCKASGYTFTDYAIHWVRQAPGQGLEWMGIINTYYGDSKYAQKFQGRVTMTVDTSTSTAYMELSSLRSEDTAVYYCARGYDGFAYWGQGTLVTVSS
VL: DIQMTQSPSSLSASVGDRVTITCRTSENIYSYLTWYQQKPGKAPKLLVYNAKILAAGVPSRFSGSGSGTDFTLTISSLQPEDFATYYCQHHYDIPWTFGGGTKLEIKR
notes: human IgG1; also called J1-183DV4; V4
B9: in assay [1], the Kd was 2.76 nM. Besides, the binding result in assay [2] and in assay [3] was “no binding (tested: 10 ug/ml)” in each case.

B10: J1-65D variant 14 (antibody, human IgG1, V domains shown)
VH: QVQLVQSGAELKKPGSSVKVSCKASGYTFTDYEMHWVRQAPGQGLEWMGAIQPGGGGTAYAQKFKGRVTLTADKSTSTAYMELSSLRSEDTAVYYCTRRGYDDYPFAYWGQGTLVTVSS
VL: DIQMTQSPSSLSASVGDRVTITCRASQGIHNYLAWYQQKPGKAPKLLIYNAKTLADAVPSRFSGSGSGTDYTLTISSLQPEDFATYYCQQFWSAPWTFGQGTKLEIK
notes: human IgG1; also called J1-65DV14; V14
As to B10, the Kd in assay [1] is 58.3 nM. For the same molecule, the binding result in assay [2] and in assay [3] was “no binding (tested: 10 ug/ml)” throughout.

B11: J1-65D variant 13 (antibody, human IgG1, V domains shown)
VH: QVQLVQSGAELKKPGSSVKVSCKASGYTFTDYEMHWVRQAPGQGLEWMGAIQPGGGGTAYNQKFKGRVTLTADKSTSTAYMELSSLRSEDTAVYYCTRRGYDDYPFAYWGQGTLVTVSS
VL: DIQMTQSPSSLSASVGDRVTITCRASQGIHNYLAWYQQKPGKAPKLLIYNAKTLADAVPSRFSGSGSGTDYTLTISSLQPEDFATYYCQQFWSAPWTFGQGTKLEIK
notes: human IgG1; also called J1-65DV13; V13
Turning to B11, the Kd in assay [1] stood at 14.2 nM. The binding result in assay [2] and in assay [3] was “no binding (tested: 10 ug/ml)” each time.

B12: J1-65D variant 15 (antibody, human IgG1, V domains shown)
VH: QVQLVQSGAEVKKPGSSVKVSCKASGYTFTDYEMHWVRQAPGQGLEWMGAIQPGGGGTAYAQKFQGRVTLTADKSTSTAYMELSSLRSEDTAVYYCTRRGYDDYPFAYWGQGTLVTVSS
VL: DIQMTQSPSSLSASVGDRVTITCRASQGIHNYLAWYQQKPGKAPKLLIYNAKTLADAVPSRFSGSGSGTDYTLTISSLQPEDFATYYCQQFWSAPWTFGQGTKLEIK
notes: human IgG1; also called J1-65DV15; V15
As for B12, the Kd in assay [1] worked out at 39.8 nM. Also, the binding result in assay [2] and in assay [3] was “no binding (tested: 10 ug/ml)” throughout.

B13: J1-65D variant 16 (antibody, human IgG1, V domains shown)
VH: QVQLVQSGAEVKKPGSSVKVSCKASGYTFTDYEMHWVRQAPGQGLEWMGAIQPGGGGTAYAQKFQGRVTITADKSTSTAYMELSSLRSEDTAVYYCTRRGYDDYPFAYWGQGTLVTVSS
VL: DIQMTQSPSSLSASVGDRVTITCRASQGIHNYLAWYQQKPGKAPKLLIYNAKTLADAVPSRFSGSGSGTDYTLTISSLQPEDFATYYCQQFWSAPWTFGQGTKLEIK
notes: human IgG1; also called J1-65DV16; V16
Regarding B13, the Kd in assay [1] was 52.1 nM. Also, the binding result in assay [2] and in assay [3] was “no binding (tested: 10 ug/ml)” throughout.

B14: J1-183D chimeric (antibody, human IgG1, V domains shown)
VH: QVQLQQPGTELVRPGVSVKISCKVSGYAFTDYAIHWIMQSHAKSLEWIGIINTYYGDSKYNQKFKDKATMTVDKSSNTAYMELARLTSEDSAIYYCARGYDGFAYWGQGTLVTVSS
VL: DIQLTQSPASLSASVGETVTFTCRTSENIYSYLTWYQQKQGKSPQLLVYNAKILAAGVPSRFSGYGSGTQFSLKINSLQPEDFGTYYCQHHYDIPWTFGGGTKLEIK
notes: chimeric antibody with unaltered CDRs; vectors encode human IgG1
For the molecule B14, the binding result in assay [2] and in assay [3] was “no binding (tested: 10 ug/ml)” each time.

B15: J1-65D chimeric (antibody, human IgG1, V domains shown)
VH: QVQLQQPGAELVRPGASVKLSCKALGYTFTDYEMHWVKETPVHGLEWIGAIQPGGGGTAYNQKFKGKATLTADKSSSTAYMELSSLTSEDSAVYYCTRRGYDDYPFAYWGQGTLVTVSS
VL: DIQLTQSPASLSASVGETVTITCRASGNIHNYLAWYQQKQGKSPQLLVYNAKTLADDIPSRFSGSGSGTQYSLKINSLQPEDFGSYYCQHFWSAPWTFGGGTKLEIK
notes: as for B14
Consider B15, for which the binding result in assay [2] and in assay [3] was “no binding (tested: 10 ug/ml)” each time.
